Experimental data reported in the nanobody polyreactivity screen of Harvey et al. (2022).

experiment: yeast display, Sf9 membrane polyspecificity reagent, FACS + sequencing; frameworks hold sequencing errors
In short: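 A synthetic nanobody library was expressed on Saccharomyces cerevisiae BJ5465 by galactose induction for 36–48 hours. The library was stained for 1 hour at 4 °C with 10% biotinylated, detergent-solubilized Sf9 membrane reagent and enriched with streptavidin microbeads before FACS. Low and high (top ~1%) gates were set on anti-HA fluorescence for expression and streptavidin fluorescence for reagent binding, and each polyreactivity label reflects the gate of origin.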

Row | Sequence | polyreactivity (PSR sort gate)
1 | QVKLVESGGGLVQAGGSLRLSCAASGSTFHVYAMGWYRQEPGKESELVAGITSSGYSTYYADSVKGRFTISRDNAKNTVYLKMNSLKPEDTAFYYCNADIRGPYYYHRYDYWGQGTQVTVSS | low polyreactivity
2 | QVHLVESGGGLVQAGGSLRLSCAASGSTFGTYAMGWYRQAPGKERELVAAISNSGGSTYYADSVKGRFTISRDYAKNTVYLQMNSLKPEDTAVYYCNTDGLVRNGPFYSWGQGTQVTVSS | low polyreactivity
3 | QVQLVESGGGLVHAGGSLRLSCAASGSIFPVNAMGWYRQAPGKERELVAAITSSGGTTYYADSVKGRFTISRDYAKITVYLLMNSLKPVDTAVYYCAADVDVSYWRMEYWGQGTQVTVSS | high polyreactivity
4 | QVQLVESGGGLVQAGGTLRLICAASGSTLYWNAMGLYRQAPGKQRELVAGISIGGRTNYADSVKGRFTISRDNAKNTVYLQMISLKPEDTAVYYCNAENTYLGSRYRPYNYWGQGTQVTVSS | low polyreactivity
5 | QVHLVESGGGLVQAGGSLRLSCAASGFTYYKYAMGWYRQAPGKEREFVDAITPSGGSTYYADSVKGRFTISRDNAKNTVYLQMNSLKPEDTAVYYCAAYYGTSRWAKMCYWGQGTQVTVSS | high polyreactivity
6 | QVQLVESGGGLVQAGGSLRLSCAASGRIFYRYAMGWYRQAPGKERELVAAITGSGGSTYYADSVKGRFTISRDNAKNTVYLQMNSLKPEDTAVYYCNAVYARYGSQGYEYWGQGTQVTVSS | high polyreactivity
7 | QVQLVESGGGLVQAGGSLRLSCAESGLILAGYTMGWYRQAPGKESELVAAISDRGGSTYYADSVKGRFTISRDNAKNTVYLQMNSLKPEDTAVYYCNAFVYSYALTPSYAGDYWGQGTQVTVSS | low polyreactivity
8 | QVQLVESGGGLVQAGGILRLICAASGRIFGPYAMGWYRQAPGKERELVADITGGGTYYADSVKGRFTISRDNAKNTVYLQMFSLKPEDTSVYYCAADYSSYTSFRYDYWGQGTHVTVSS | low polyreactivity
9 | QEHLVESGGGLVQAGGSLRLSCAAYGSIFVSYAMGWYRQAPGKERELVAAISWSGGSTYYADSVKGRFTISRDNAKNTVYLQMNSLKPEDTAVYYCNGVPSEGFDWGQGTQVTVSS | low polyreactivity
10 | QVQLVESGGGLVQAGGSLRLSCAASGRIFSFYTMGWYRQAPGKERELVAAISSGGRTYYADSVKGRFTISRDNEKNTVYLQMNSLKPEDTAVYYCAAGSHYAFYYWGQGTQVTVSS | high polyreactivity
11 | QVQLVESGGGLVQAGGSLRLSCAASGRIFDGYAMGWYRQAPGKESELVAAISSRGGRTYYADSVKGRFTISRDNAKNTVYLQMNSLKPEDTAVYYCAGDDPYGEGDYWGQGTQVTVSS | low polyreactivity
12 | QVHLVESGGGLFQAGGSLRLSCAASGGIFSIYAMGWYRQAPGKERELVAAISTSGGSTYYADSLKGRFTISRDNAKNSVYLQMNSLKPEDTAVYYCNARRGFYWSWRGRYISGDYWGQGTQVTVSS | high polyreactivity
13 | QVQLVESGGGLVQAGGSLRLSCAASGFIFPRYAMGWYRQAPGKERELVADISYSGGSTYYADSVKGRFTISRDNAKNTVYLQMNSLKPEDTAVYRPYAFGYWGQGTQVTVSS | high polyreactivity
14 | QVQLVESGGGLVQAGGSLRLSCAASGGTFKFYAMGWYRQAPGKERELVAAISWSGTSTYYADSVKGRFTISRDNAKNTVYLQMNSLKPEDTAVYYCAADKRLRGHGYDYWGQGTQVTVSS | high polyreactivity
15 | QVQLVESGGGLVQAGGSLRLSCAASGIIFRLYGMGWYRQAPGKERELVAGINTGGSTYADSVKGRFTISRDNAKNTVYLQMNSLKPEDTAVYYCATGPYLIYDYWGQGTQVTVSS | low polyreactivity
16 | QVQLVESGGGLVQAGGSLRLICAASGFTFYKNTMGWYRQAPGKERELVAAISSSGSSTYYADSVKGRFTISRDNAKNTVYLQMNSLKPEDTAVYYCAAGRFAYHDDYWGQGTQVTVSS | high polyreactivity
17 | QVQLVESGGGLVQEGGSLRLSCAASGFTFAQYALGWYRQAPGNERELVAAISRRGGRTYYADSVTGRFTISRDIAKNTVYLQMTSLKPEDSAVSYCAADGGYQDDYDYWGQGTQVTVSS | high polyreactivity
18 | QFQLVDSRGGLVQAGGSLRLSCAASGAIFGGYAMGWYRTAPGKARELVAGSTRSGGSTYYADSVKGRFTISRDNPKNTVYLQMNSLKPEDTAVYYCAVEIQFYRSPRIVRSYDYWGHGTQVTVSS | low polyreactivity
19 | QVQLVESGGGLVQAGGSLRLSCAASGFTFRYYAMGWYRQAPGKEREFVAAISRGGGTTYYADSVKGRFTISRDNAKNTVYLQMNSLKPEDTAVYYCATRALYWRYGYDYWGQGTQVTVSS | high polyreactivity
20 | QVQLVESGGGLVQEGGSLRLSCAASGFIFKHYAMGWYRQAPGKEMELVAAISGGGSTNYADSVKGRFTISRDNAKNTVYLQMNSLKPEDSAVYYCAARSRSLGYGYWGQGTHVTVSS | low polyreactivity
21 | QVQLVESGGGLVQAGGSLRLSCAASGRIFYINVMGWYRQAPGKERELVAGITWIGGSTYADSVKGRFTISRDNAKNTVYLQMNSLKPEVTAVYYCNADPDFTVYRYLWPEGVEYWGQGTQVTVSS | low polyreactivity
22 | QVQLVESGGGLVQAGGSLRLSSAASGRTTKVYAMGWYRQGPGKPRELVARITSSGVRRYYADSVKGRFTISRDNAKNTVYLHMNSLKPEDTAVYYCGKDARALWLHSGIYDYSGQGTQVTVSS | low polyreactivity

Row | Sequence | polyreactivity (PSR sort gate)
23 | QVQLVESGGGLVQAGGSLRLSCAASGSTFVHYAMGWYRQAPGKERELVAAINDGGSTHYADSVKGRFTISRDNAKNTVYLQMHSLKPEDTAVYYCAAEYVWYRYPDYWGAYDYWGQGTQVTVSS | low polyreactivity
24 | QVQRVESGGALVQAGGSLRLSCAASGSTFYAYAMGWYRPAPGKERELVAAITYRDGRTYYADSVKGRFTISRDNAKNTVYLQMNRLKQEDTAVYYCARKTGFTVRRYDYWGHGTQVTVSS | high polyreactivity
25 | QVQLVESGGGLVQAGGSLRLSCAASGYIYAYYAMGWYRQAPGKERELVAAITGRGDTTYYADSVKGRFTISRDNAKNTVYLQMNSLIPEDTAVYYCNAEKPTYYYVPGKYDVDYWGQGTQVTVSS | low polyreactivity
26 | QVQLVESGGGLVQAGGSLRLSCAASGRIFVYNAMGWYRQAPGKERELVATISSGGSTNYADSVKGRFTISRDNAKNTVYLQMNSLKPEDTAVYYCAARFYVSNSRISARNYWGQGTQVTVSS | high polyreactivity
27 | QVQLVESGGGLVQAGGSLRLSCAASGRTFVPYAMGWYRQAPGKEREFVAVITWGGGSTYYADSVKGRFTISRDNAKNTVYLQMNSLKPEDTAVYYCAARNRRATGLGSRYGYWGQGTQVTVSS | high polyreactivity
28 | QVQLVESGGRLVQAGGSIRLICAASGFTFIGYAMGWYRQAPGKERELVADITYSGSSTYYADSVKGRFTISRDNAKNTVYLQMNSLKPEDTAVYYCAAEAYYYCFDVDYWGQGTLVTVSS | low polyreactivity
29 | QVQLVESGGGLVQAGGSLSLICAASGTTFYYYAMGWYRQAPGKERELVAANTLRGTSTYYADSVKGRFTISRDNAKNTVDLQMNRLKPEDTAVYYCAVETYYSIFDIYDYWGQGTQVTVSS | low polyreactivity
30 | QVQLVESGGGLVQAGGSLRLSCAASGRIFKYYAMGWYRQAPGKERELVAAISTSVGSTYYADSVKGRFTISRDNAKNTVYLQMNSLKPEDTAVYYCNTRKYHYFLGGAAGNYWGQGTQVTVSS | high polyreactivity
31 | QVQLVESGGGLVQAGGSLRLSCAASGSTFLYYDMGWYRQAPGKERELVADITWSGSGTYYADSVKGRFTISRDNAKNTVYLQMNSLKPEDTAVYYCDADDTWRGDQYFYSYDYWGQGTQVTVSS | low polyreactivity
32 | QVQLVESGGGLVQAGGILRLSCAASGFIFAKYAMVWYRQAPGKERELVAAITSGGSTNYADSVKGRFTISRDNAKNTVYLQMNSLKPEDTAVYYCNRGFDWWYRYRHYDYWGQGTQVTVSS | low polyreactivity
33 | QDQLVESGGGLVQAGGSLRLSCAASGFILGLNAMGWYRQAPGKEREFVADISWSGDSTYYADSVKGRFTISRDNAKNTVYLQMNSLKPEDTAFYYCAAVPYYNWGYYYWGQGTQVTVSS | low polyreactivity
34 | QVQLVESGVGLVQAGGSLRLSCAPSGRIFGTYAMVWYRQAPGKERELVASITDRGDSTYADSVKGRFTISRDNAKNTVYLQMNSLKPEDTAVYYCAADGWWHNFYPGTGLDYWGQGTQVTVSS | low polyreactivity
35 | QVQLVESGGGLVQAGGSLRLSCAASGGIFHGYVMGWYRQEPGKERELVASIRTRGVRTYYADSVKGRFTISRDNAKNTVYLQMNSLKPEDTAVYYCNARGQVYSTLSSYRYDYWGQGTQVTVSS | high polyreactivity
36 | QVQLQESGGGMVQAGGSQRLSCAASGYISWADYMGWYRKATGKERELVAGIGYGSTTYYADSVKGLFTISRDNANNTAYLQMNSLKPEDTAVYYCAVGWYRDTAYKYWGQGTQVTVSS | low polyreactivity
37 | QVQLVESGGGLVQAGGSLRLSCAASGRTFRSYAMGWSRQAPGKGRELVAAISRSGGTTTYADSVKGRFTISRDNAKNTVYLQMNSLKPEDTAVYYCARGQNRYWQFHGAYDYWGQGTQVTVSS | high polyreactivity
38 | QVQLVESGGGLVQAGGSLRLSCAASGIIFLYYAMGWYRQAPGKERELVAAISKSGGSTYYADSVKGRFTISRDNAKNTVYLQMNSLKPEDTAVYYCAARLWHLSYAGQGGDYWGQGTQVTVSS | low polyreactivity
39 | QVQLVESGGGLVQAGGSLRLSCAASGSTFDYNAMVWYRQAPGKESDLVVAITWGGDSTYADSVKGRFTISRDNAKNTVYLQMNSLKPEDTAVYYCAAEQDPWTSRYVFFASRYDYWGQGTQVTVSS | low polyreactivity
40 | QVQLVKSGGGLVQAGGSLRLSCAASGRIIDRNAMGWYRQAPGKERELVAAISSSGSTNYADSVKGRFTISRDNAKNTVYLQMNSLKPQDTAVYYCAARWRSVLAAGTRPVSFDYWGQGTQVTVSS | low polyreactivity
41 | QVQLVESGGGLVQAGGSLRLSCSASGNIFKRYTMGWYRQAPGKERELVAAISGGDSTNYADSVKGRFTISRDNAKKTVYLQMNCLKPEDTAVYYCAGGGLTLWHGYILGYWGQGTQVTVSS | low polyreactivity
42 | QVQLVESGGGLVQAGGSLRLSCAASGFTFFEDNAMGWYRQAPGKERELVAAITSGGSTNYADSVKGRFTFSRDNAKNTVYLQMNSLKPEDTAVYYCAKDRVPLKTRFYYFPWGYDYWGQGTQVTVSS | low polyreactivity
43 | QVQLVESGGGLVQAGGSLRLSCAATGGLFNVYVMGWYRQAPGKERELVAAITWRGGSTYYADSVKGRFTISRDNAKNTVYLQMNSLKPEDTAVYYCNADAPFQSSSDGYQVEYWGQGTQVTVSS | low polyreactivity
